Experimental data published in publication PMC11053944, “FRET Assays for the Identification of C. albicans HSP90-Sba1 and Human HSP90α-p23 Binding Inhibitors” (Pharmaceuticals, 2024).
Several values for one entry are separate records, joined by “and”; a condition that tells them apart may be missing. Equal values may be shown once.

Legend:
[1] = target: the molecule itself; assay: cross-linking; glutaraldehyde cross-linking and SDS-PAGE (Coomassie): 10 µM HSP90 with equimolar Sba1 or mScarlet-I, reaction buffer, 15 min 30 °C, 5 mM ATP or 2 mM AMP-PNP; cross-linking 2 min at room temperature
[2] = target: T1, C. albicans HSP90E36A-mNeonGreen (C. albicans, UniProt P46598 1-707, E36A); assay: FRET or BRET; Kd determination, C. albicans: 200 nM HSP90E36A-mNeonGreen, Sba1-mScarlet-I 0-3000 nM (lowest non-zero 10 nM), reaction buffer with 5 mM ATP, 30 °C (text; the legend of Figure 2 says 37 °C), measured after 180 min; mNeonGreen control subtracted; nonlinear regression; conditions: both partners purified
T1 construct: HSP90 of C. albicans, UniProtKB P46598, ATP-hydrolysis-defective mutant E36A; As m1 with E36A; GGGGS linker before mNeonGreen; also called His6-HSP90E36A-mNeonGreen; source: E. coli BL21(DE3), purified (Ni-NTA, gel filtration); not shown: mNeonGreen, C-terminal, kept

[3] = target: T2, C. albicans HSP90-mNeonGreen (C. albicans, UniProt P46598 1-707); assay: FRET or BRET; competition, C. albicans: 1 µM HSP90-mNeonGreen and 1 µM Sba1-mScarlet-I with unlabeled Sba1 0-25,000 nM (lowest non-zero 12 nM), reaction buffer with 5 mM ATP; relative IC50 (four parameters), Ki by One Site - Fit Ki; conditions: both partners purified
T2 construct: HSP90 of C. albicans, UniProtKB P46598; pET-11d: N-terminal His6, FXa site, XhoI site, protein, KpnI site; mNeonGreen joined to the C-terminus of HSP90 by a flexible linker GGGGS; No cleavage of the His6 tag is told; also called His6-HSP90-mNeonGreen; source: E. coli BL21(DE3), purified (Ni-NTA, gel filtration); not shown: mNeonGreen, C-terminal, kept

human HSP90α-mNeonGreen = target: T3, human HSP90α-mNeonGreen (human, UniProt P07900 1-732); assay: FRET or BRET; competition, human: 1 µM HSP90α-mNeonGreen and 1 µM p23-mScarlet-I with unlabeled p23 0-50,000 nM (lowest non-zero 23 nM), reaction buffer with 5 mM ATP; relative IC50 (four parameters), Ki by One Site - Fit Ki; conditions: both partners purified
T3 construct: human HSP90α, UniProt P07900; DNA from a plasmid of a previous work of the lab; Cloned by restriction-ligation on the basis of the C. albicans FRET plasmids (His6, FXa site, protein, mNeonGreen at the C-terminus); also called His6-HSP90α-mNeonGreen; source: E. coli Rosetta2(DE3) pLysS, purified (Ni-NTA, gel filtration); not shown: mNeonGreen, C-terminal, kept

[4] = target: T4, human HSP90αE47A-mNeonGreen (human, UniProt P07900 1-732, E47A); assay: FRET or BRET; Kd determination, human: 200 nM HSP90αE47A-mNeonGreen, p23-mScarlet-I 0-3000 nM (lowest non-zero 10 nM), reaction buffer with 5 mM ATP, 37 °C, measured after 180 min; mNeonGreen control subtracted; nonlinear regression; conditions: both partners purified
T4 construct: human HSP90α, UniProt P07900, ATP-hydrolysis-defective mutant E47A; As m3 with E47A; also called His6-HSP90αE47A-mNeonGreen; source: E. coli Rosetta2(DE3) pLysS, purified (Ni-NTA, gel filtration); not shown: mNeonGreen, C-terminal, kept

B1: C. albicans HSP90 (without fluorescent protein) (natural protein)
chain: not shown
notes: HSP90 of C. albicans, UniProtKB P46598; Printed mass of the monomer 82.5 kDa, dimer 165 kDa; N-terminal His6 followed by an FXa site; also called His6-HSP90; source: E. coli BL21(DE3), purified (Ni-NTA, gel filtration)
[1]
  stoichiometry N: 2

B2: C. albicans Sba1-mScarlet-I (natural protein, UniProt A0A1D8PQ94 1-221, looked up)
chain: MSSTTTQTPTVLWAQRSSEDDAAKNIIYLTIQISDPIDLKIDLKSDHLIIDSKSNDSVYSSIDYHLQIDFFKEIDPDQSKINTENGSHIFMILRKKDQQEEYWPRLTKEKLKYHYIKTDFDKWVDEDEQDEVKDDPNDFGGPGGPGGAMDFSQMLSGMGGLGGAGGSGGPGGVDLSALASQLGQAGGAGGAAGLDGEEGEEGEAEAKEAQEESNTTATEKE
notes: Sba1 of C. albicans, UniProtKB A0A1D8PQ94; mScarlet-I fused to the 3' end of Sba1, analogously to HSP90-mNeonGreen (there with a GGGGS linker); N-terminal His6 followed by an FXa site; also called His6-Sba1-mScarlet-I; source: E. coli BL21(DE3), purified (Ni-NTA, gel filtration); not shown: mScarlet-I, C-terminal, kept
[2]
  Kd: 100 nM

B3: C. albicans Sba1 (unlabeled) (natural protein, UniProt A0A1D8PQ94 1-221, looked up)
chain: MSSTTTQTPTVLWAQRSSEDDAAKNIIYLTIQISDPIDLKIDLKSDHLIIDSKSNDSVYSSIDYHLQIDFFKEIDPDQSKINTENGSHIFMILRKKDQQEEYWPRLTKEKLKYHYIKTDFDKWVDEDEQDEVKDDPNDFGGPGGPGGAMDFSQMLSGMGGLGGAGGSGGPGGVDLSALASQLGQAGGAGGAAGLDGEEGEEGEAEAKEAQEESNTTATEKE
notes: Sba1 of C. albicans, UniProtKB A0A1D8PQ94; N-terminal His6 followed by an FXa site; also called His6-Sba1; unlabeled Sba1; source: E. coli BL21(DE3), purified (Ni-NTA, gel filtration)
[3]
  IC50: 1950 nM
  Ki: 100 nM

B4: human p23 (unlabeled) (natural protein, UniProt Q15185 1-160, looked up)
chain: MQPASAKWYDRRDYVFIEFCVEDSKDVNVNFEKSKLTFSCLGGSDNFKHLNEIDLFHCIDPNDSKHKRTDRSILCCLRKGESGQSWPRLTKERAKLNWLSVDFNNWKDWEDDSDEDMSNFDRFSEMMNNMGGDEDVDLPEVDGADDDSQDSDDEKMPDLE
notes: human p23, UniProt Q15185; N-terminal His6 followed by an FXa site; also called His6-p23; unlabeled p23; source: E. coli Rosetta2(DE3) pLysS, purified (Ni-NTA, gel filtration)
Human HSP90α-mNeonGreen
  IC50: 1420 nM
  Ki: 100 nM

B5: human p23-mScarlet-I (natural protein, UniProt Q15185 1-160, looked up)
chain: MQPASAKWYDRRDYVFIEFCVEDSKDVNVNFEKSKLTFSCLGGSDNFKHLNEIDLFHCIDPNDSKHKRTDRSILCCLRKGESGQSWPRLTKERAKLNWLSVDFNNWKDWEDDSDEDMSNFDRFSEMMNNMGGDEDVDLPEVDGADDDSQDSDDEKMPDLE
notes: human p23, UniProt Q15185; Cloned by restriction-ligation on the basis of the C. albicans FRET plasmids (His6, FXa site, protein, mScarlet-I at the C-terminus); also called His6-p23-mScarlet-I; source: E. coli Rosetta2(DE3) pLysS, purified (Ni-NTA, gel filtration); not shown: mScarlet-I, C-terminal, kept
[4]
  Kd: 210 nM and 220 nM
